This note sets out measurements from US20130157934A1 (INDIANA UNIVERSITY RESEARCH AND TECHNOLOGY, published 2013).

Where two headings read alike, the source gives them in different places. Positions of bridges follow the written chain, without caps; N, C: chain ends. Non-standard residues stand in square brackets, D forms with d. No end group written: not given here. PhLac = O=C(O)[C@@H](O)Cc1ccccc1

Common to all, as to assay: cell-based or functional assay
Assay [1] deals with T1, GLP-1 receptor (UniProt P43220 24-463, limits assumed).
In assay [2] the target is T2, glucagon receptor (UniProt P47871 26-477, limits assumed).
Assay [3] has as its target T1, GLP-1 receptor. This is another data set of the same source.
Assay [4] concerns the target T2, glucagon receptor. This is another data set of the same source.

T2 sequence (P47871 26-477 limits assumed): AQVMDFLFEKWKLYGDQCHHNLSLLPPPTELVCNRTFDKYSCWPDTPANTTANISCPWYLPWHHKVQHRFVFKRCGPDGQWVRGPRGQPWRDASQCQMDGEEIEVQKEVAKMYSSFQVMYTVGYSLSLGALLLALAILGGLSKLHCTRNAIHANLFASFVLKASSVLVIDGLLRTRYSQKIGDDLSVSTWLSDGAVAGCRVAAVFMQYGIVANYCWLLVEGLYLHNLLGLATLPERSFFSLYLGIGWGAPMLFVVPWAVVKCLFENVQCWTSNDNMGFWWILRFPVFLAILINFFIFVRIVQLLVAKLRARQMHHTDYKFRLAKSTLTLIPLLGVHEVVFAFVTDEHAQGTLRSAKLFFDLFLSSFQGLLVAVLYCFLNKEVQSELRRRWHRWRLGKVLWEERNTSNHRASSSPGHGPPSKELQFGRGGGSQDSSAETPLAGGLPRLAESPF
T1 sequence (P43220 24-463 limits assumed): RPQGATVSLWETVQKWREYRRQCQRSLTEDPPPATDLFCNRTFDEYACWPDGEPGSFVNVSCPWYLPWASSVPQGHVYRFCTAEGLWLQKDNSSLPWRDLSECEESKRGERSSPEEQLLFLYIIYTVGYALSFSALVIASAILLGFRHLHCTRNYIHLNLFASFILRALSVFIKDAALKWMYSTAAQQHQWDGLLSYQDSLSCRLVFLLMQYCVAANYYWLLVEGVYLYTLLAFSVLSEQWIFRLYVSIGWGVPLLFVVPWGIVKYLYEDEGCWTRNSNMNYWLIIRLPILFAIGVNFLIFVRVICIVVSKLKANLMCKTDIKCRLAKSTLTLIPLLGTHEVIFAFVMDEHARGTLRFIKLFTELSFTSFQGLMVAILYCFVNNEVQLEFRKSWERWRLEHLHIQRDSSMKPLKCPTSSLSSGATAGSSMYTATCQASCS

B1: [PLA6, D9, K12E16(Lactam), D28]G(6-29) (peptide)
peptide: [PhLac]TSDYSKYLDERRAQDFVQWLMDT-NH2
modifications: lactam 7-11; not fully specified
As for B1, the GLP-1 EC50 in assay [1] worked out at 177 nM; in assay [3] it was 21 nM. The values for the Glucagon IC50 in assay [2] and in assay [4] were 63 nM and 13 nM, respectively.
